Holding throughout (assay): fluorescence polarisation
Assay [1] addresses T1, activated RecA (RecA*), E. coli RecA polymerised on ssDNA with ATPγS (E. coli, UniProt P0A7G6 1-353).
T1 sequence (looked up): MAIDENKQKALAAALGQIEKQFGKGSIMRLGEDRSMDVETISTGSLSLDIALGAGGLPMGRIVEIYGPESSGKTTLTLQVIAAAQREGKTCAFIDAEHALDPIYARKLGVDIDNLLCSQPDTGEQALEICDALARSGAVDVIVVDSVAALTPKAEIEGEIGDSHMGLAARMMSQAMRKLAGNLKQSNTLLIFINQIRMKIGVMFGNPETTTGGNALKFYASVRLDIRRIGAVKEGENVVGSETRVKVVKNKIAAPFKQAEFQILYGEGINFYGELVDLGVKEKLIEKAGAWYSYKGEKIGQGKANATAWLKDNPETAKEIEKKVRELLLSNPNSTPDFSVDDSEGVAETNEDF

In assay [2] the target is T1, activated RecA (RecA*), E. coli RecA …. This is another data set of the same source.
Assay [3] shares this target. The source holds these as a separate data set.

Results on two molecules are retold here after publication PMC7230020 (ACS chemical biology, 2020).

Where two headings read alike, the source gives them in different places. Numbered stars: 1 amine (or outer) side, 2 acyl side, 3 side chain; on linkers, the order of the positions; unused ones are H or OH. Square brackets hold non-standard residues; d marks the D form. Acd = acridonylalanine, O=C([C@H](Cc1ccc2[nH]c3ccccc3c(=O)c2c1)N[*:1])[*:2]

B1: LexA-S119A, unlabeled catalytically inactive full-length LexA(1–202) (natural protein, E. coli, UniProt P0A7C2 1-202, looked up)
chain: MKALTARQQEVFDLIRDHISQTGMPPTRAEIAQRLGFRSPNAAEEHLKALARKGVIEIVSGASRGIRLLQEEEEGLPLVGRVAAGEPLLAQQHIEGHYQVDPSLFKPNADFLLRVSGMAMKDIGIMDGDLLAVHKTQDVRNGQVVVARIDDEVTVKRLKKQGNKVELLPENSEFKPIVVDLRQQSFTIEGLAVGVIRNGDWL
On to B1, for which, in assay [1], the binding result is given as “binds”.

B2: LexA-S119A-Q161δ, full-length E. coli LexA with acridonylalanine (Acd) at position 161 (natural protein)
chain: MKALTARQQEVFDLIRDHISQTGMPPTRAEIAQRLGFRSPNAAEEHLKALARKGVIEIVSGASRGIRLLQEEEEGLPLVGRVAAGEPLLAQQHIEGHYQVDPSLFKPNADFLLRVSGMAMKDIGIMDGDLLAVHKTQDVRNGQVVVARIDDEVTVKRLKK[Acd]GNKVELLPENSEFKPIVVDLRQQSFTIEGLAVGVIRNGDWL
B2: in assay [2], the koff amounted to 0.093 s⁻¹. In assay [3], this molecule registered a dissociation constant Kd of 790 nM, a koff of 0.048 s⁻¹ and a kon of 61000 M⁻¹ s⁻¹.
